{"source": "paper PMC12265263", "about": "“H2A.X N-terminal acetylation is a newly identified NAA40-mediated modification that is responsive to UV irradiation” (Epigenetics & Chromatin, 2025)", "key": {"human NAA40 WT": {"target": "T1, human NAA40 WT (Homo sapiens, UniProt Q86UY6)", "T1 construct": "GST (N); made in house; host or cells: E. coli BL21 (DE3) codon plus RIL", "test": "Fluorescence-based in vitro Nt-acetylation assay, N-terminal 17-mer peptides, wild-type NAA40", "assay_type": "biochemical", "conditions": "for Nt-acetylation by recombinant wild type NAA40: 17-mer peptide 15 μM, 0.1 μM hNAA40, 15 μM Thioglo4, 25 mM HEPES pH 7.5, 150 mM NaCl, 0.01% Triton X100, 5 min, fluorescence ex 410/em 475 nm, ΔRFU/min, triplicate, repeated two times, Fig. 1E", "procedure": "(§1) hNAA40 (NCBI: NM_024771.4) WT and E139Q were cloned in pGEX-5 × 1 vector. The plasmids were transformed in BL21 (DE3) codon plus RIL pACYC E. coli cells, generously provided by Till Bartke (Institute of Functional Epigenetics, Helmholtz Munich). The transformed bacteria were grown in 40 mL Lysogeny Broth (LB) medium complemented with 100 μg/mL Ampicillin (Sigma A9518) and 25 μg/mL Chloramphenicol (Sigma C0378-5G) for 16 h at 37 °C. Final culture volume was adjusted to 400 mL with LB and the growth was resumed for 2 h. Protein expression was initiated by adding 0.1 mM isopropyl β-D-1-thiogalactopyranoside (IPTG) (Thermo Fisher Scientific 15529019) and incubating further for 4 h at 37 °C. Bacteria were pelleted and resuspended in ice cold PBS/1% Triton-X100 supplemented with protease inhibitors. Cells were lysed by small probe sonication (amplitude 30%, 3 × 45 s on ice). Lysate bacteria were pelleted, and the supernatant was incubated with Glutathione agarose beads (Cytiva 17075601) for 1 h. Then, washing steps were made with ice cold PBS/1% Triton-X100 and ice-cold PBS. The beads with the recombinant GST-NAA40 WT or E139Q were stored at − 20 °C in 80% PBS/20% glycerol. To obtain the GST tagged hNAA40, the buffer 50 mM Tris HCL pH 8, 20 mM reduced Glutathione-20% glycerol was used to elute the GST-NAA40. To obtain the untagged version of hNAA40, hNAA40 was enzymatically cut by Factor Xa (NEB P8010S) from the beads and was dialyzed in 50 mM Tris–HCL pH 7.5, 100 mM NaCl, 25% Glycerol. The recombinant proteins were confirmed by SDS-PAGE and the concentrations were determined using the BIO-RAD protein assay dye reagent (BIO-RAD 5000006) and Nanodrop 1000.\nAn adaptation of the previous described fluorescence assay was used to study the kinetics of hNAA40 with the histone substrates H2A.X, H2A, and H4. Specifically, the full-length histone proteins H2A.X (TEBU BIO 23615-0307), H2A, H4, and H2B, and 17-mer peptides corresponding to the N-terminal end of H4, H2A.X, H2A.J, SMARCD2 were tested with WT or E139Q hNAA40. The peptides used in this study were synthesized by BIOSYNTAN GmbH, with > 95% purity. Final substrate concentration was 15μM for the rate comparison between WT and E139Q hNAA40 (ΔRFU/min), and for the Km determination the concentration ranged from 0.1 μM to 25 μM (1:2 dilutions). The reactions were in triplicate, repeated two times and contained 15 μM Thioglo4 (Merck 595504), 10 μM Acetyl coenzyme A lithium salt (Santa Cruz sc-214465), 25 mM HEPES pH 7.5, 150 mM NaCl, 0.01% Triton X100), 0.1μM hNAA40 in a final volume of 40 μl. The reaction was initiated with the addition of the substrate. The fluorescence was monitored with Tecan Spark multimode reader with excitation 410 ± 20 nm and emission 475 ± 20 nm, and the duration of the reaction was 5 min. We generated the standard curve y = 685.2*X-92.53 using 0–10 μM 1:2 dilutions of Coenzyme A sodium salt hydrate (Merck C13144) and 25 mM HEPES pH 7.5, 150 mM NaCl, 0.01% Triton X100. GraphPad Prism 8 was used for the enzyme kinetics analyses."}, "human NAA40 E139Q": {"test_system": "human NAA40 E139Q", "test": "Fluorescence-based in vitro Nt-acetylation assay, N-terminal 17-mer peptides, catalytically inactive NAA40 E139Q", "assay_type": "biochemical", "conditions": "17-mer peptide 15 μM, 10 μM acetyl-CoA, 0.1 μM hNAA40 E139Q, 25 mM HEPES pH 7.5, 5 min, triplicate, repeated two times, Fig. 1E", "procedure": "as §1\nAn adaptation of the previous described fluorescence assay was used to study the kinetics of hNAA40 with the histone substrates H2A.X, H2A, and H4. […] The fluorescence was monitored with Tecan Spark multimode reader with excitation 410 ± 20 nm and emission 475 ± 20 nm, and the duration of the reaction was 5 min. […]"}}, "data": [{"substance": "H2A.J peptide: 17 amino acid long peptide corresponding to the N-terminal end of H2A.J (MSGRGKQGGKVRAKAKS; UniProt Q9BTM1 1-17, looked up, fragment)", "values": [{"measurement": "Nt-acetylation by recombinant wild type NAA40", "setting": "human NAA40 WT; 10 μM acetyl-CoA", "result": "Nt-acetylated by the wild-type"}, {"measurement": "Nt-acetylation by catalytically inactive NAA40 (E139Q)", "setting": "human NAA40 E139Q", "result": "not the catalytically inactive human NAA40"}]}, {"substance": "H2A.X peptide: 17 amino acid long peptide corresponding to the N-terminal end of H2A.X (SGRGKTGGKARAKAKSR; UniProt P16104 2-18, looked up, fragment)", "values": [{"measurement": "Nt-acetylation by recombinant wild type NAA40", "setting": "human NAA40 WT; 10 μM acetyl-CoA", "result": "Nt-acetylated by the wild-type"}, {"measurement": "Nt-acetylation by catalytically inactive NAA40 (E139Q)", "setting": "human NAA40 E139Q", "result": "not the catalytically inactive human NAA40"}]}, {"substance": "SMARCD2 peptide: 17 amino acid long peptide corresponding to the N-terminal end of SMARCD2 (MSGRGAGGFPLPPLSPG; UniProt Q92925 1-17, looked up, fragment)", "values": [{"measurement": "Nt-acetylation by recombinant wild type NAA40", "setting": "human NAA40 WT; 10 μM acetyl-CoA", "result": "Nt-acetylated by the wild-type"}, {"measurement": "Michaelis constant (Km), stated as affinity (inverse measure)", "setting": "human NAA40 WT; 17-mer peptides 0.1 μM to 25 μM (1:2 dilutions), 10 μM acetyl-CoA, 0.1 μM hNAA40, pH 7.5, Fig. 1F", "result": "significantly lower"}, {"measurement": "catalytic efficiency (kcat/Km)", "setting": "human NAA40 WT; 17-mer peptides, Fig. 1H", "result": "significantly lower than histones"}, {"measurement": "Nt-acetylation by catalytically inactive NAA40 (E139Q)", "setting": "human NAA40 E139Q", "result": "not the catalytically inactive human NAA40"}]}]}
